In one assay the target is surface of live cells. Kind of assay: association and dissociation on the surface of live cells; method not stated.
Assay [1] has as its target human KLB and FGFR1c overexpressed on HEK293 cells (human) (UniProt Q86Z14). The assay can be described thus: cell-based or functional assay.

Some results are limits rather than exact numbers.

Chain of UniProt Q86Z14 (Q86Z14 whole entry, chain 1 of 2): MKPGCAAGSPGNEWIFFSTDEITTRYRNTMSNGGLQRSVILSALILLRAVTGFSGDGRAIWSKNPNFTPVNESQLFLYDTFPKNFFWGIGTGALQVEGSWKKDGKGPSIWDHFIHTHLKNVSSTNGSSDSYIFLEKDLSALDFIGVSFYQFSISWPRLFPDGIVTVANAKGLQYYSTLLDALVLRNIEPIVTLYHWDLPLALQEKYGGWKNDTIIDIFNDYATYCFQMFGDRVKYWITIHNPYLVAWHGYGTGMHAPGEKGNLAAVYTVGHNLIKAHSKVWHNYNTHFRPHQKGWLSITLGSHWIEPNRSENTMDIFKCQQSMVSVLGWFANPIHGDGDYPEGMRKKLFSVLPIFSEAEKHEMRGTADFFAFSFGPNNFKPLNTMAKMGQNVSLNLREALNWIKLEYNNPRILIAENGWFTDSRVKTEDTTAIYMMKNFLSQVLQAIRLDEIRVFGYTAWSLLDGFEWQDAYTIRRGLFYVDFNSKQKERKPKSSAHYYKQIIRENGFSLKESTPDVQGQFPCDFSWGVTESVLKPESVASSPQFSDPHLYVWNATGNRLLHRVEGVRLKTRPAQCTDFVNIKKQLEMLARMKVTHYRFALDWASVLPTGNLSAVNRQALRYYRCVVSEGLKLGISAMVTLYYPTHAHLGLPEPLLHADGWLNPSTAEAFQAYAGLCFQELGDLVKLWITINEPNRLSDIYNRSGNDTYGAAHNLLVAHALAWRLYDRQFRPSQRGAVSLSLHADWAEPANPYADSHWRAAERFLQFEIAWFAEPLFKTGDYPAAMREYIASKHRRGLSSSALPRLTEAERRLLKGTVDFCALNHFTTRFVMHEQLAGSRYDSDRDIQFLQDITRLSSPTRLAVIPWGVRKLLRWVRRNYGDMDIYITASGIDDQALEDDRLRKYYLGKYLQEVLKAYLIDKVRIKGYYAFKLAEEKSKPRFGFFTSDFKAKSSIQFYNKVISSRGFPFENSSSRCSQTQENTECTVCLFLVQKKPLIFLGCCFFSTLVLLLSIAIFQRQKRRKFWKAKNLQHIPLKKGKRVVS
Chain of UniProt Q86Z14 (P11362 22-822, chain 2 of 2, further chain): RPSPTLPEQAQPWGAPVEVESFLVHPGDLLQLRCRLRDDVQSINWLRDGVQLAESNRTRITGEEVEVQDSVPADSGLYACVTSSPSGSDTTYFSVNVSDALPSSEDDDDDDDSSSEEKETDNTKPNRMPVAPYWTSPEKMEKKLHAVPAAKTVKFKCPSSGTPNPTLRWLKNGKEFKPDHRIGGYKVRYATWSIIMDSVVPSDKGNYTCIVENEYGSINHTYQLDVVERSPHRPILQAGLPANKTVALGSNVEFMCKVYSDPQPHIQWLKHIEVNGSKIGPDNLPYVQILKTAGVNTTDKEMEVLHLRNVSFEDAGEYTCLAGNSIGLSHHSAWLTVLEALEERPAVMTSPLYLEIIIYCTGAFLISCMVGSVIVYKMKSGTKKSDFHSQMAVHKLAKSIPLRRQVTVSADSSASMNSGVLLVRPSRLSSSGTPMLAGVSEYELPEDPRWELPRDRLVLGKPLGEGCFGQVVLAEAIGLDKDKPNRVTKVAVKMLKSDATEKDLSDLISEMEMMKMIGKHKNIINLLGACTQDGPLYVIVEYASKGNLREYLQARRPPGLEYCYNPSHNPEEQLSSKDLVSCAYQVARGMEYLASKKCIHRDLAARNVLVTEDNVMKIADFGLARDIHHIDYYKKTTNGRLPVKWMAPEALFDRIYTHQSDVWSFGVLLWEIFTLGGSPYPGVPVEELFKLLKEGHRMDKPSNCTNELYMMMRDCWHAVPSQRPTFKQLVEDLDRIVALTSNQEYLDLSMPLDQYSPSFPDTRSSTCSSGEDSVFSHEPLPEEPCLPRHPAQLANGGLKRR

Efruxifermin (EFX) (Fc fusion): the fold more stable interaction, compared to either free FGF21 or a single FGF21 domain linked to an Fc domain with surface of live cells was greater than 100 fold. The cell-based potency assay, Elk1 luciferase reporter in HEK293 cells overexpressing human KLB and FGFR1c; potency relative to ¾ EFX in assay [1] was 2 fold.
